# Numbered stars: 1 amine (or outer) side, 2 acyl side, 3 side chain; on linkers, the order of the positions; unused ones are H or OH. Bridge positions count the residues as written; N and C are the ends. TRITC = tetramethylrhodamine dye; Cysteamine = C(CS[*:2])N[*:1]; Ahx = NCCCCCC(=O)O
# Legend:
# [1] = biological target: DD(E) (soluble protein fragment of fibrin) (Homo sapiens, UniProt P02671+P02675+P02679); conditions: known value used for the competition assay; read-out: dissociation constant (Kd) of the TRITC-Tn6 probe for DD(E), known value; cited from earlier work
# fibrin fragment DD(E) = fibrin fragment DD(E) (Homo sapiens, UniProt P02671+P02675+P02679); assay: Direct binding to DD(E) by fluorescence anisotropy; conditions: serial dilution of DD(E)
# Experimental: The binding constants of the TRITC-Tn6-MDS probe and its activated cyclic form were then measured with the fibrin fragment DD(E). A serial dilution of the DD(E) protein was prepared and then mixed with the two probes. […] Therefore, the disulfide linkage of this probe can act as a switch for binding.
# PDI [2] = biological target: T1, PDI (Homo sapiens, UniProt P07237); assay: Real-time fluorescence anisotropy assay of TRITC-Tn6-MDS activation in presence of DD(E); type: biochemical; conditions: only when both PDI and DTT are present simultaneously; 2 μM DD(E)
# Experimental: These experiments were conducted in the same assay buffer as was used for the LC-MS experiment described above.
# PDI [3] = biological target: T1, PDI; assay: LC-MS analysis of conversion of TRITC-Tn6-MDS to cyclized form; type: biochemical
# Experimental: This mixed disulfide (MDS) probe, denoted as TRITC-Tn6-MDS, was then tested to determine whether it could be recognized as a substrate by PDI. Conversion of the probe from the mixed-disulfide (MDS) form to the cyclized form was followed by LC-MS under three sets of reaction conditions (PDI alone; DTT alone; and PDI+DTT). The assay buffer for these experiments was 50 mM TRIS, 100 mM NaCl, 2 mM CaCl, and 0.1% Triton X-100.
# T1 sequence (P07237 18-508, species assumed): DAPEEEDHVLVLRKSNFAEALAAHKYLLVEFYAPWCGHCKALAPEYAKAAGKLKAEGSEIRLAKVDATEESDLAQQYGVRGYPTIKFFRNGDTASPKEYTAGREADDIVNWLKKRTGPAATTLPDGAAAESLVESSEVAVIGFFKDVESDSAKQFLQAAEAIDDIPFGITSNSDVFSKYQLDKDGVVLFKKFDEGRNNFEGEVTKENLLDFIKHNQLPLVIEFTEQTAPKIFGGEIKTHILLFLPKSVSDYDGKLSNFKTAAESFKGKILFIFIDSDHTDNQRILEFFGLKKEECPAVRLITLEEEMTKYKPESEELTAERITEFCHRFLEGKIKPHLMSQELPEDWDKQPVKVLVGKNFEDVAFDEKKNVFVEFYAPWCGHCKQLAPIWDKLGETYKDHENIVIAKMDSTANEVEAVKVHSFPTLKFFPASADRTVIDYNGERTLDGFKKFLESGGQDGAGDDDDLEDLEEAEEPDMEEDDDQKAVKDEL
# DD(E) (soluble protein fragment of fibrin), sequence (P02671 130-216): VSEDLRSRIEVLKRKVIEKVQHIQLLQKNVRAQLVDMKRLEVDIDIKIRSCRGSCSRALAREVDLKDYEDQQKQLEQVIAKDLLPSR
# DD(E) (soluble protein fragment of fibrin), sequence (P02675 164-491): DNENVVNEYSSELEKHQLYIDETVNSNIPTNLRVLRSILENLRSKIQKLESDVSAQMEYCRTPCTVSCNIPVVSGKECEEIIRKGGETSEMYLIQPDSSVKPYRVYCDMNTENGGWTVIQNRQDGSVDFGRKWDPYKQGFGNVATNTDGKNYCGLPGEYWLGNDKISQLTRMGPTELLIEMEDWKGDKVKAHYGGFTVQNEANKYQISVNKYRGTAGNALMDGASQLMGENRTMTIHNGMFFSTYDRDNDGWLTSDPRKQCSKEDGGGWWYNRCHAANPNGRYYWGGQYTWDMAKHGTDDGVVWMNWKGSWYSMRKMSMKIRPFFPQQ
# DD(E) (soluble protein fragment of fibrin), sequence (P02679 114-432): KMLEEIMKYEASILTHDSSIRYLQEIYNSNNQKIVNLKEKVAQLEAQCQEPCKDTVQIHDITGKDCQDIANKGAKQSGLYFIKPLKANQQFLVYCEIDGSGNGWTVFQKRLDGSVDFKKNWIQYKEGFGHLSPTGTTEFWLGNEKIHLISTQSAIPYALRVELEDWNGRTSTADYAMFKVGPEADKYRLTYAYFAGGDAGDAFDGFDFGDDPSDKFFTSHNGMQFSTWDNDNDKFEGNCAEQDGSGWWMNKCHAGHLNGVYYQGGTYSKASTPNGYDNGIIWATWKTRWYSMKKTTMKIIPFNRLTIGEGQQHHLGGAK
# DD(E) (soluble protein fragment of fibrin), sequence (P02671 36-97): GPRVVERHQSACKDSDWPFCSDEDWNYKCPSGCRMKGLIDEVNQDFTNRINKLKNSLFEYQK
# DD(E) (soluble protein fragment of fibrin), sequence (P02675 45-152): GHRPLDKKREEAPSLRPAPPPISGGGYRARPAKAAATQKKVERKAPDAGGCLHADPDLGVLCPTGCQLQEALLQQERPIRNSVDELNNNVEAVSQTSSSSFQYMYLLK
# DD(E) (soluble protein fragment of fibrin), sequence (P02679 27-88): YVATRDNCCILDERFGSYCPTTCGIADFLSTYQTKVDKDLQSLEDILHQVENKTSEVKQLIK
# fibrin fragment DD(E), sequence (P02671 130-216): as the sequence (P02671 130-216) above
# fibrin fragment DD(E), sequence (P02675 164-491): as the sequence (P02675 164-491) above
# fibrin fragment DD(E), sequence (P02679 114-432): as the sequence (P02679 114-432) above
# fibrin fragment DD(E), sequence (P02671 36-97): as the sequence (P02671 36-97) above
# fibrin fragment DD(E), sequence (P02675 45-152): as the sequence (P02675 45-152) above
# fibrin fragment DD(E), sequence (P02679 27-88): as the sequence (P02679 27-88) above
Substance,Kd [1],Kd for DD(E) relative to that of the cyclic form (fibrin fragment DD(E)),activation of the probe (cyclization and binding to DD(E)) (PDI [2]),conversion of mixed-disulfide form to cyclized form (PDI [3]; PDI alone),"conversion of mixed-disulfide form to cyclized form (PDI [3]; PDI in the presence of DTT, compared to DTT alone)"
TRITC-Tn6: fluorescent peptide structurally similar to EP-2104R that binds the same site on DD(E) ({TRITC-Ahx}-QWECPYGLCWIQ-NH2; disulfide 4-9 (inferred)),510 nM,,,,
"TRITCAha -QWECPYGLCWIQ-NH2 ({TRITC-Ahx}-QWEC(Cysteamine)PYGLC(Cysteamine)WIQ-NH2) [TRITC-Tn6-MDS, linear optical probe; N-terminal tetramethylrhodamine via 6-aminohexanoic acid linker; two cysteines protected as mixed disulfides with cystamine]",,roughly 20 fold,efficiently activated,does not promote cyclization,rapid conversion

# — patent US10471163B2, “Activatable fibrin-binding probes” (priority 2013, dated 2019)
